Test results from patent JP2024051908A (dated 2024).

B1: MO2 (antibody, V domains shown)
VH: EVQLVESGGGLVKPGGSLSLSCVASGFTFSDYRMSWIRQAPGKGLEWVSYISSSSGYKDYADSVKGRFTISRDNAKNSLSLQMNSLRVEDTAVYYCARDVGVVTATPGYWGQGVPVSVSS
VL: DIVMTQSPATLSVSPGERATLSCRASQSVGSNLAWYQQKPGQAPRLLIYDTSTRATGVPARFSGSGSGTDFTLTISSLQSEDFAVYLCHQYDQWPPAFGPGTRVDIK
B2: MO1 (antibody, V domains shown)
VH: EVQLVESGGGMVQPGRSLRLSCAASGFTFDDYAMHWVRQIPGKGLEWVSGISWNSGDIGYADSVKGRFTISRDNAKNSLHLQMNSLRAEDTALYYCAKDKTYDSPGYFLNSFDYWGQGTLVTVSS
VL: DIQMTQSPSSLSASVGDRVTITCRASQGISSYLVWYQQKPGKAPKFLIYAASTLQSGVPSRFSGSGSGTDFTLTISSLQPEDFATYYCQQLYSYPITFGQGTRLEIK

Key:
Assay in all cases: cell-based or functional assay
[1] = target: SARS-CoV-2 Delta変異株のスパイクタンパク質 (authentic virus) (SARS-CoV-2 Delta)
[2] = target: SARS-CoV-2 オミクロンBA.2変異株のスパイクタンパク質 (authentic virus) (SARS-CoV-2 Omicron BA.2)
[3] = target: SARS-CoV-2 オミクロンBA.1変異株のスパイクタンパク質 (authentic virus) (SARS-CoV-2 Omicron BA.1)
[4] = target: SARS-CoV-2 オミクロンBA.1.1変異株のスパイクタンパク質 (authentic virus) (SARS-CoV-2 Omicron BA.1.1)
[5] = target: SARS-CoV-2 D614G変異株のスパイクタンパク質 (authentic virus) (SARS-CoV-2 D614G, UniProt P0DTC2 14-1273)
[6] = target: SARS-CoV-2 オミクロンBA.5変異株のスパイクタンパク質 (authentic virus) (SARS-CoV-2 Omicron BA.5)

Row | Binder | IC50, プラーク減少中和試験 (PRNT) [1] | IC50, プラーク減少中和試験 (PRNT) [2] | IC50, プラーク減少中和試験 (PRNT) [3] | IC50, プラーク減少中和試験 (PRNT) [4] | IC50, プラーク減少中和試験 (PRNT) [5] | IC50, プラーク減少中和試験 (PRNT) [6]
1 | B1 | 0.0882 µg/mL | 0.151 µg/mL | 0.0177 µg/mL | 0.036 µg/mL | 0.0658 µg/mL | –
2 | B2 | 0.0158 µg/mL | 0.0203 µg/mL | 0.004 µg/mL | 0.0106 µg/mL | 0.0236 µg/mL | 0.0157 µg/mL
